This is an account of results in patent US12714679B2, “Fullerenes to treat diseases and conditions” (The Cleveland Clinic Foundation, priority 2018, dated 2026).

The nature of data set [1]: Lead acetate (PbA/PbS) assay, catalytic H2S production from cysteine. The format is biochemical. As to the method: Further work was conducted as follows with regard to the catalytic production of H2S by PHFs. PHF (SJJR; 10 mg/mL) was added to a mixture of L-cysteine (10 mM) and […] (PLP; 1 mM) in a 96-well plate and then covered with a blotting paper saturated with lead acetate. After 24 hours, the lead acetate paper was removed and scanned. The lead sulfide dots were analyzed for average integrated density using ImageJ. After every 24 hours, the wells were replenished with L-cysteine (10 mM) and covered with the lead acetate paper and the lead sulfide dots were analyzed.
Lead acetate assay: The kinetics and catalysis coefficients for PHF catalyzed H2S production were determined using lead acetate assay (PbA/PbS assay) as generally described in Hine and Mitchell, “Endpoint and Kinetic Measurement of Hydrogen Sulfide Production Capacity in Tissue Extracts” Bio-Protocol, 7 (13), e2382, 2017). Briefly: Reaction mixtures (150 μL/well) containing PHF or enzyme (CGL), enzyme co-factor (PLP) and substrate (e.g., cysteine) were tested in 96-well plates Immediately after addition of catalyst, 96-well plates were covered with lead acetate saturated paper and placed inside a 37° C. cell culture incubator. At a predetermined time point, the lead acetate paper was removed and scanned, and the lead sulfide dots analyzed with ImageJ using the IntDen function. A calibration curve was prepared with different concentrations of sodium hydrosulfide plotted against the integrated density obtained on lead acetate/lead sulfide paper. The presence of pyruvic acid after reaction was confirmed in a preliminary experiment by liquid chromatography—mass spectroscopy.
To determine the steady-state kinetic parameters experiments were carried out with different initial substrate concentrations. The initial (linear) slope from the graph of H2S concentration versus time at each substrate concentration was used to determine the reaction velocity, which was plotted against initial cysteine concentrations to obtain Michaelis-Menten curves (FIGS. 5 and 6). Least squares non-linear fitting was used to determine values of Km and Vmax from the equation v=Vmax [S]/(Km+[S]).

Data set [2] in a line: HR-TEM size. The format is physicochemical. An excerpt: FIG. 3: Panel A) a hypothetical schematic illustration of the breakdown of cysteine to hydrogen sulfide, ammonia and pyruvic acid. While the present disclosure is not limited to any particular mechanism and an understanding of the mechanism is not necessary to practice the invention, it is believed that polyhydroxy fullerenes (PHF) mimic carbon-sulfur lyases. It was found during work conducted during development of embodiments herein that PHFs catalyze the breakdown of cysteine under physiological conditions. Panel B) HR-TEM image of PHF (C60(OH)9O7Na6) showing a cluster size of 3.4±0.5 nm. Panel C) HR-TEM image of CGL showing a molecular size of 4.1±0.4 nm.

Setting [3] is: Without PLP, substrate L-Cysteine.

In the case of `Cc1ncc(COP(=O)(O)O)c(C=O)c1O` [PLP, pyridoxal-5′-phosphate, reference compound], the H2S produced in data set [1] (PLP with cysteine, no PHF, in 24 hours) was found to be 0.024 mM.

B1: cystathionine γ-lyase (protein, UniProt P32929 1-405, looked up)
Cystathionine gamma-lyase: MQEKDASSQGFLPHFQHFATQAIHVGQDPEQWTSRAVVPPISLSTTFKQGAPGQHSGFEYSRSGNPTRNCLEKAVAALDGAKYCLAFASGLAATVTITHLLKAGDQIICMDDVYGGTNRYFRQVASEFGLKISFVDCSKIKLLEAAITPETKLVWIETPTNPTQKVIDIEGCAHIVHKHGDIILVVDNTFMSPYFQRPLALGADISMYSATKYMNGHSDVVMGLVSVNCESLHNRLRFLQNSLGAVPSPIDCYLCNRGLKTLHVRMEKHFKNGMAVAQFLESNPWVEKVIYPGLPSHPQHELVKRQCTGCTGMVTFYIKGTLQHAEIFLKNLKLFTLAESLGGFESLAELPAIMTHASVLKNDRDVLGISDTLIRLSVGLEDEEDLLEDLDQALKAAHPPSGSHS
notes: enzyme producing H2S from cysteine, comparator catalyst
For B1, in data set [2], the molecular size was found to be 4.1±0.4 nm. Further, in data set [1] (PBS), the “H2S production at room temperature” value is “produced H2S only in presence of PLP”. Besides, in data set [1] (PBS, presence or absence of PLP), the “H2S production at 4° C.” value is “No H2S was produced”. In data set [1] (With PLP, substrate L-Cysteine), the KCAT came out at 130 s⁻¹, the Km was found to be 25.4 mM and the Vmax came out at 2.9 nM/s. In addition, in data set [1] (setting [3]), the KCAT came out at 5800 s⁻¹ and the Vmax is on record as 1.3 nM/s.
